Data as given in the DeepSol protein solubility set.

Experiment: soluble on expression in E. coli; label from the status in PepcDB or PDB records

| Sequence | soluble on expression in E. coli |
| --- | --- |
| MAHHHHHHMSITSRFIGGVKHLLKGGSMKYLAAGEPYCPFGEAFGLTILPEYILEDDASNLRKGYVDVYTRASDRIILNDGRFQLPPLPPASFMPLLERLEQDNVVPKSWLNNQTANLYEPGDFIRAHIDNLFVYDDIFAICSLGSNCLLRFVHVQNGEELDVMVPDRSVYIMSGPARYVYFHMVLPVEAQRFSLVFRRSIMESDGGFRPVKTPFKEIMPYRATQILNALYSKQVGGVRVSVDDDFLESADIGAFDTSRWVKRLHPLRDWSLLRQLDEDEARVEALREKRFIDVDFSWRYRELRSYYKAMEESLVSPHVAHVTPQA | soluble |
| MGSDKIHHHHHHMRASVLSDWLAQRLDRGNGQPIYRQLHRLLQQAILTRELPPGSKVPSSRLLAQELGIGRNTVTQVYEQLVLEGYVSSATGRGTFVADSAPDEIVGVPDAAAPDTSAESSPQQAKRALSTRGARLIAGAGVSKRQWGAFMPGVPDVTKFPARVWSRLHNKYWRRLRPDLLTYAPGGGLASLRHALADYLRTSRSVRCTPEQIIITTGIHQSVDLAVRLLSDPGDVIWTEDPCYWGVRSVLHVSGLQSRPIAVDEEGINPSADDLAQPPKLMLVTPSHQYPLGMVMSLARRRMLLEYARQNQCWIIEDDYDSEYRYGSRPLASLQGLDTSGQVIYVGSFGKTLFPGLRIGYLVVPEALAESFATASAELYREGQLLQQAMLAEFIAEGHFTSHIRRMRTLYGQRRQTLLDAAAHRYGDALPAVGGDAGLHLVMQLPEGSDDRQVAATALERNIVVRPLSGYYAQPSLAPSGLLIGYACVPDEEIAPAFNTLADAIDVTLPEFA | not soluble |
| MSLKKNFALEKKKELQEMTNSAVRRVLDFKKDPNKVIELLNFMARSPQYSFKNQMMVSSQYENSNFTMGSRQFKETMGLKVNENATPIKIVAPVMNTFFKRNDKLVQLRFANKEEKEKIKNKEIKTIQNVWYYKLVDVYDITQTNAKPEDFPEYYPDRRYNFYVKNTEVIDDIISANKKLLKDNNIHLIENHTYNQLGTSVGFAGKNLTGDKIVGYRDGLNKTEILHTLLHETTHAFYHQKENPEKTTELKEFEAEMTAYIVAKRFGVDTSEHTIKYVSDWTESMSKIEDIEQSIKTVSMYSSRIINDIEKQIDPVKIKEGHHHHHH | not soluble |
| MHESIQMIIDRIDHLVLTVSDISTTIRFYEEVLGFSAVTFKQNRKALIFGAQKINLHQQEMEFEPKASRPTPGSADLCFITSTPINDVVSEILQAGISIVEGPVERTGATGEIMSIYIRDPDGNLIEISQYVLEHHHHHH | not soluble |
| MAVGAPFLYRYSLYNCAYVILNGKVLGIVPKSYIPNYSEFYEKRWFTEGFNIKGLNVDLDFQKEVPFGTDLIFSFKNLKVGFEICEDLWVTIPPSSNLALMGANLICNLSASNELVSKSSYRKSLVQNQSARTMCSYIYSSAGVHESTTDLLFSGHMIIAENGTIIKENNRFKRENDLLTGIVDLFKLDAERIKNISFRNSTFNENNEPRFIPFNLENTEIKNFDREIDKHPFLPKSQYAMEARCEEILNIQAAALAKRLEHTNLKKAVIGISGGLDSTLALLVVVKTFDMLNIPRENIITITMPGFGTTDRTYNNAVTLCKELHCDFREINIVNAALQHFEDIGHDKDIHDVTYENVQARERTQILMDLANKEGGLLIGTGDLSELALGWCTYNGDHMSMYSVNCSIPKTLVRFLVNYFANHEISNDAKEALLDILDTPVSPELLPKDKEGKIAQKTEDIVGPYELHDFFLYHFIKHGSSPERILFLAKEAFKNDYDEETLKKWLDKFIRRFFTQQFKRSALPDGPKVGSISLSPRGDWRMPSDAVYNDFLILEHHHHHH | not soluble |
| MGDQPFIPPPQQTALTVNDHDEVTVWNAAPCPMLPRDQVYVRVEAVAINPSDTKMRGQFATPWAFLGTDYAGTVVAVGSDVTHIQVGDRVYGAQNEMCPRTPDQGAFSQYTVTRGRVWAKIPKGLSFEQAAALPAGISTAGLAMKLLGLPLPSPSADQPPTHSKPVYVLVYGGSTATATVTMQMLRLSGYIPIATCSPHNFDLAKSRGAEEVFDYRAPNLAQTIRTYTKNNLRYALDCITNVESTTFCFAAIGRAGGHYVSLNPFPEHAATRKMVTTDWTLGPTIFGEGSTWPAPYGRPGSEEERQFGEDLWRIAGQLVEDGRLVHHPLRVVQGGFDHIKQGMELVRKGELSGEKLVVRLEGPLEHHHHHH | soluble |
| MGSDKIHHHHHHMYYGSIITVLSSDKNKLTGIAEKLGKLHETAKTKIYYRKKGEYIRSILLTTEYPEKIIDLAEALSLSSTAILYIPETLTWMDGELALLIDSLNTHNKIVISNLDQGKINNILGSLSSFTKFDLYNDIPDLSETEEEDKGIVYVDRVFTVKGVGTVVTGFSFTNVEVHEKLVALPYNKEVEIKSIQVLDEDQKSVSTGVRIGFALKNVKEEEIEDLLYLVKPNVKVVKEIEGQITNYKWSTINQGQNHIIVKGHGIAANIKVDNQKAKIMSSVPIPIVDNRILVLNVNVRQGKPRVAGYISL | not soluble |
| MSPQTRPDAMSVVQERQVLRVGTLINPTSYYFDHDREQGFEYDLAKRFADRLGVELEMVPRFDVNDLFTMLRRGEVDIVAAGLDRTSTRAQLFRFSPPYDIISQKVVFKQGSRQRPRDLQQITDGEIVVVEGSSHHEFLKSLGDSIPTLKWRATRDHDAVELLQMVISGEVDYTITDSTALDIQRRFHPDLSVAFTVKHDQDIAWALPQGKDDSLFAAVIEYFGEIRSSGRLAHIKEQHFGHVKQFNYVTTSLFIEAVEQVLPGYIETFKEHSGSLDWRLLAAISYQESLWNPRAVSPTGVRGMMMLTLPTAKAMGVKSRLNAEQSIRGGARYLERMLNRVPARIPQPDRTWFAIAAYNIGFGHLEDARIITERQGGNPDRWVDVKKRLPLLRQKQFYRHTRYGFARGDEPVTYVGNIRRFYDTLKYLDEQGRLLEHHHHHH | soluble |
| MGSDKIHHHHHHMNYRTIAKNGSTEETIKKSRFICQAKRITNEAEGRDFITQIKKEHYKARHSCSAMIIGENSDIKRSSDDGEPSGTAGIPMLSVLEKKQLTNLVLVVTRYFGGIKLGTGGLIRAYSGGAANTLKALGIVEVKKQTGLRLELTYPQYQTFANFLKEHQLQEYDTDFSVTVNTTIYVDKKDIEFTLDQLTEFYQGKLKSHVAGNQIIEVPVI | not soluble |
| MISSIRLDLFRTKVFVMPLKFPLSICLLGTFLVTSAQAQEAVKGVVELFTSQGCASCPPADEALRKMIQKGDVVGLSYHVDYWNYLGWTDSLASKENTERQYGYMRALGRNGVYTPQAILNGRDHVKGADVRGIYDRLDAFKREGQGLNVPVSSKFAGDEVEIDIGAGNGKADVVVAYFTREQTVDVQKGENQGKKMSYWHSVYDVQTVGMWDGSPMTVKLPASVVAKVKKGGCAVLLQTANASGDPAAIVGASILLGNETQLEHHHHHH | soluble |
| MAHHHHHHMTSTLTNSNRINIPAVCRLRERNTNKTVGSGVLVAQGLLLTSATAIPTQSRATHIVATFFEGTKKSAVDVQLQPQRYYFASRYPPEMDYCLISCEEAPLLNVTPVHMALTGKGWAPVEEGDVVLIVEHPIGDVAGTAAVPLDGKATFSSTLSATGDGDFDSVRAPYTEQKRFEEVLRCRGNVSFLKSNGSWRTAGCPAFNEHGQLVGLQSQSRADGEGVVNRILSLISIVKHLFANVQLPHLPQEDVTFEDVWDTWYVTNDITRILAILANFKGKSMAQQVTWRLCELTAKPQLVKSIASNGGIEVILQNLSLFSSDEKLSESGLRALWNVSIGEEAHLATIIKKEGVQTILDVVESFPANETVLEFGAVLLHNIAGCRAAPNFSEAHGARALKALYPGFQQFRESVVLQKFALSFFATLARLNEDFARDLVQQHVIEHITHLVEEKPKQIFLMEIVVGFVAELAQYPQTVELMCSNTPQYAAASMSYLIDLLIHIILEYKDLDSLLVSGNRALWGLGNVPTCRGIILENPRGIDALRISLPPLIASTHR | soluble |
| MDIRELVHLGRYAVWNAFEGKEIKVPEALKEKYSRNMGVFTTLKTYPEHNLRGCIGVPLPVYPLWYATVYSSLQAAFQDPRFYPLKKEEFDKVLWEITLLTPPEELKVPKEELPEQIEIGKHGLIIEKGEQKGLLLPQVPVEYGWSPVEFLEYTCLKAGLPKDCWKDKETKVYVFSGEVYQEKEPFGEVERVNLKLEHHHHHH | soluble |
| GPGSMSAHDSSAMALIAHMNDIEQQRRVLSMSQREQEAKIAFTTAEKEQLVQAAKAAEAEEAQLKDDLEVLATEQQQLELQKMEATDRLRRTQAEEALHTAAVEADLQALAKEKVLWHERAQDLESLRRSWEEDAATSSCIAALRQESEMLAPLKAEKTAVEDALAETMAAIEKVRAEQQARLTCLGSVGAPADAVQRSGLARALASMHGSALSDGNTATVDDDDTAAALEEEIKRADYEAAQVTARHGRTIAVLQREVDALSTRAGELQQLLSSIGASWQEVLSRTRDLQHCKETGLCRRCLT | soluble |
| MAELDIGQHCQVQHCRQRDFLPFVCDGCSGIFCLEHRSKDSHGCSEVNVVKERPKTDEHKSY | soluble |
| MGSDKIHHHHHHMSEFYGAQHRQWQEHFDGVAMADRVRELIVLPSIPEEHAGFIGSRDFFFLSTIDHRGFPTCSYKGGQPGFVKILDDTTLAFPSLDGNSMYLSMGNLSLNPKIGMLFIDFETPHRIRVHGTASVKPDDTLLAEYQEAELIVRIKIEEIFVNCPRYIHKHQRVQHSPYVPQAGCTTRTPQWKRLDSVQDVLRQPDLEKVSRMGGPITIEEYMELVLQGDA | not soluble |
| MGGLSAQSTAATATMGGKNKQRTKGNLRPSNSGRAAELLAKEQGTVPGFIGFGTSQSDLGYVPAIQGAEEIDSLVDSDFRMVLRKLSKKDVTTKLKAMQEFGTMCTERDTETVKGVLPYWPRIFCKISLDHDRRVREATQQAFEKLILKVKKQLGPYLKSLMGYWLMAQCDTYTPAAFAAKDAFEAAFPPSKQPEAIAFCKDEITSVLQDHLIKETPDTLSDPQTVQRKKEKLNSTGLLEHHHHHH | not soluble |
| SGSSEDQAYRLLNDYANGFMVSQVLFAACELGVFDLLAEAPGPLDVAAVAAGVRASAHGTELLLDICVSLKLLKVETRGGKAFYRNTELSSDYLTTVSPTSQCSMLKYMGRTSYRCWGHLADAVREGRNQYLETFGVPAEELFTAIYRSEGERLQFMQALQEVWSVNGRSVLTAFDLSVFPLMCDLGGDFFKDPLPEADLYILARVLHDWADGKCSHLLERIYHTCKPGGGILVIESLLDEDRRGPLLTQLYSLNMLVQTEGQERTPTHYHMLLSSAGFRDFQFKKTGAIYDAILARK | soluble |
